Assay results from article PMC1762330, “‘Fractional Recovery’ Analysis of a Presynaptic Synaptotagmin 1-Anchored Endocytic Protein Complex” (PLoS ONE, 2006).

T1: AP180 (rat (endogenous in rat brain …, UniProt Q05140 1-915))
T1 construct: AP180 (clathrin coat assembly protein), endogenous in rat brain synaptosomes; source: endogenous, rat brain synaptosome lysate
T1 sequence (looked up): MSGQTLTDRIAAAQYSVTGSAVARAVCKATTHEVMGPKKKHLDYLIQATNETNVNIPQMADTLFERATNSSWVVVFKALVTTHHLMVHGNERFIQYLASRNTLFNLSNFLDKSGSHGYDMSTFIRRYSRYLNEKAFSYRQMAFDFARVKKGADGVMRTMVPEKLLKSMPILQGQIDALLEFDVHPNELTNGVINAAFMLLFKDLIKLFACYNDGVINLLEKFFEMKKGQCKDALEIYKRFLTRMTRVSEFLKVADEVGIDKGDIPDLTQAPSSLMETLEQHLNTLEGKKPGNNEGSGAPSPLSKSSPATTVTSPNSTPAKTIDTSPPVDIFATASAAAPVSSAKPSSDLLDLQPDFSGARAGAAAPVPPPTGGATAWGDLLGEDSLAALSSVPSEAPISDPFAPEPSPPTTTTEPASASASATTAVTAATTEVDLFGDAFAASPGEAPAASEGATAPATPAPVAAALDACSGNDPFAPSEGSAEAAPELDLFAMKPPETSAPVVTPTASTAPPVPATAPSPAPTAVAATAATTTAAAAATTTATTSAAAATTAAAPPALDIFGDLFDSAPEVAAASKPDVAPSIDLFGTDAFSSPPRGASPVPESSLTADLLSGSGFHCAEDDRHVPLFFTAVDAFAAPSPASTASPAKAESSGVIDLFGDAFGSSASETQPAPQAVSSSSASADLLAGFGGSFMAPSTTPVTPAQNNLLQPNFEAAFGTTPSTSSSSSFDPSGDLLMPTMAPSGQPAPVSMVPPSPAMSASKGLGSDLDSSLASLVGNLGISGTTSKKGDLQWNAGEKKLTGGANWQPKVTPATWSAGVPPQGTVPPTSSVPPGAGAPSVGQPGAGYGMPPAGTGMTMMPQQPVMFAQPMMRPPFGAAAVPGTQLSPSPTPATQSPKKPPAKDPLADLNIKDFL

B1: stonin2 (natural protein, UniProt D4AB66 1-895, looked up)
chain: MTTLDHVIATHQSEWVSFSEEPLFPTPLEGGTEEHFPGLSSSSDRSESSSGENHAVDEGSQDLSHSEQDDSSEKMGLISEAASPPGSPVQPTPDLASAISNWVQFEDDTPWSNTSAPHKETALTLTVPCWTCPSLDSLRRCPLASESSWTTHSEDTSSPSVAPSYTDLQLINAEEQASGRASGTDSTDNSSSLQEDEEVEMETISWWAGSPAMNGHPAVPQVTTARFPSWVTFEDNEVGCPSPTVPSPKKPNAPSAATAGPDVPFNSTGSFKRDRPKSTLMNLSKVQKLDISSLNRPPSVTEAPPWRATNPFLNESLQDIQPSPINPFSAFFEEQERRSQNSSISGTSGKSQRDSLIVIYQDAISFDDSGKSQSHPDAIEKLKQLQIDDPDPVGNAALPDDDPTASVEPDAPSPTSALSQPRDGWPMMLRIPEKKNIMSSRHWGPIYIKLTDSGYLQLYYEQGLEKPFREFKLEICHEVSEPRLQNYDENGRIHSLRIDRVTYKEKKKYQPKPAVAHAAEREQVIKLGTTNYDDFLSFIHAVQDRLMDLPVQSMDLSTVGLNYLEEEITVDIRDEFSGTVSKGDNQILQHHVLTRIHILSFLSGLAECRLGLNDILIKGNEIVSRQDIMPTTTTKWIKLHECRFHGCVDEDVFNSSRVILFNPLDACRFELMRFRTVFAEKTLPFTLRTAASINGAEVEVQSWLRMSPGFSSNRDPLTQVPCENVMVRYPVPSEWVKNFRRESVLGEKSLKAKVNRGASFGSAGASGSEPVMRVTLGTAKYEHAFNSIVWRINRLPDKNSASGHPHCFFCHLELGSDREVPSRFANHVNVEFSMPTTSASKAAVRSISVEDKPDVRKWVNYSAHYSYKVEIEQKKSLKPDFEGEDLENPKECGVQ
notes: stonin 2, endogenous in rat brain synaptosomes; source: endogenous, rat brain synaptosome lysate
B2: short-variant intersectin (natural protein, UniProt Q9WVE9-1 1-1217, looked up)
chain: MAQFPTPFGGSLDIWAITVEERAKHDQQFQSLKPISGFITGDQARNFFFQSGLPQPVLAQIWALADMNKDGRMDQVEFSIAMKLIKLKLQGYQLPPALPPVMKQQPAAISSAPAFGIGGMAGMPPLTAVAPVPMGSIPVVGMSPPLVSSVPQAAVPPLANGAPPVIQPLPAFAHPAATLPKSSSFSRSGPGSQLNTKLQKAQSFDVASAPAAAEWAVPQSSRLKYRQLFNSHDKTMSGHLTGPQARTILMQSSLPQAQLASIWNLSDIDQDGKLTAEEFILAMHLIDVAMSGQPLPPVLPPEYIPPSFRRVRSGSGMSVISSSSADQRLPEEPSSEDEQQVEKKLPVTFEDKKRENFERGNLELEKRRQALLEQQRKEQERLAQLERAEQERKERERQEQERKRQLELEKQLEKQRELERQREEERRKEIERREAAKRELERQRQLEWERNRRQELLTQRNKDQEGIVVLKARRKTLEFELEALNDKKHQLEGKLQDIRCRLATQRQEIESTNKSRELRIAEITHLQQQLQESQQMLGRLIPEKQILSDQLKQVQQNSLHRDSLLTLKRALEAKELARQQLREQLDEVEKETRSKLQEIDVFNNQLKELREIHSKQQLQKQRSIEAERLKQKEQERKSLELEKQKEEGQRRVQERDKQWQEHVQQEEQQRPRKPHEEDKLKREDSVKKKEAEERAKPEVQDKQSRLFHPHQEPAKPAQAPWPTTEKGPLTISAQESAKVVYYRALYPFESRSHDEITIQPGDIVMVKGEWVDESQTGEPGWLGGELKGKTGWFPANYAEKIPENEIPTPAKPVTDLTSAPAPKLALRETPAPLPVTSSEPSTTPNNWADFSSTWPSSTNEKPETDNWDTWAAQPSLTVPSAGQLRQRSAFTPATATGSSPSPVLGQGEKVEGLQAQALYPWRAKKDNHLNFNKSDVITVLEQQDMWWFGEVQGQKGWFPKSYVKLISGPVRKSTSIDTGPTEAPSSLKRVASPAAKPAIPGEEFVAMYTYESSEHGDLTFQQGDVIVVTKKDGDWWTGTVGETSGVFPSNYVRLKDSEGSGTAGKTGSLGKKPEIAQVIASYTATGPEQLTLAPGQLILIRKKNPGGWWEGELQARGKKRQIGWFPANYVKLLSPGTSKITPTELPKTAVQPAVCQVIGMYDYTAQNDDELAFSKGQIINVLSKEDPDWWKGEVSGQVGLFPSNYVKLTTDMDPSQQ
notes: intersectin (intersectin 1 by the antibody's name Intersectin/ESE-1), short variant, told from the long variant by the size of its band; endogenous in rat brain synaptosomes; they are told apart only as bands on the blot; not checked; also called S-intersectin; S-Int; source: endogenous, rat brain synaptosome lysate
B3: synaptotagmin 1 (natural protein, UniProt P21707 1-421, looked up)
chain: MVSASHPEALAAPVTTVATLVPHNATEPASPGEGKEDAFSKLKQKFMNELHKIPLPPWALIAIAIVAVLLVVTCCFCVCKKCLFKKKNKKKGKEKGGKNAINMKDVKDLGKTMKDQALKDDDAETGLTDGEEKEEPKEEEKLGKLQYSLDYDFQNNQLLVGIIQAAELPALDMGGTSDPYVKVFLLPDKKKKFETKVHRKTLNPVFNEQFTFKVPYSELGGKTLVMAVYDFDRFSKHDIIGEFKVPMNTVDFGHVTEEWRDLQSAEKEEQEKLGDICFSLRYVPTAGKLTVVILEAKNLKKMDVGGLSDPYVKIHLMQNGKRLKKKKTTIKKNTLNPYYNESFSFEVPFEQIQKVQVVVTVLDYDKIGKNDAIGKVFVGYNSTGAELRHWSDMLANPRRPIAQWHTLQVEEEVDAMLAVKK
notes: synaptotagmin 1, endogenous in synaptosomes from brains of 2-10 day old Sprague Dawley rats; also called STG; STG 1; source: endogenous, rat brain synaptosome lysate

What was measured:
Assay in all cases: co-IP; fractional recovery: immunoprecipitate from rat brain synaptosome lysate on beads split in three aliquots, 15 min on ice in RIPA buffer with 150, 650 or 1150 mM total salt; what stayed on the beads found by Western blot and densitometry; FR = recovery at 1150 mM / recovery at 150 mM, normalised to the FR of the IP-protein
[1] = target: stonin2 (rat (endogenous in rat brain synaptosomes)) (UniProt D4AB66)
AP180 = target: T1, AP180; conditions: partners not purified
heavy chain clathrin = target: T2, heavy chain clathrin (rat (endogenous in rat brain …, UniProt P11442 1-1675)); conditions: partners not purified
T2 construct: clathrin heavy chain, endogenous in rat brain synaptosomes; also called H-clathrin; H-Cl; source: endogenous, rat brain synaptosome lysate

stonin2 = target: B1; conditions: partners not purified

T2 sequence (P11442 whole entry): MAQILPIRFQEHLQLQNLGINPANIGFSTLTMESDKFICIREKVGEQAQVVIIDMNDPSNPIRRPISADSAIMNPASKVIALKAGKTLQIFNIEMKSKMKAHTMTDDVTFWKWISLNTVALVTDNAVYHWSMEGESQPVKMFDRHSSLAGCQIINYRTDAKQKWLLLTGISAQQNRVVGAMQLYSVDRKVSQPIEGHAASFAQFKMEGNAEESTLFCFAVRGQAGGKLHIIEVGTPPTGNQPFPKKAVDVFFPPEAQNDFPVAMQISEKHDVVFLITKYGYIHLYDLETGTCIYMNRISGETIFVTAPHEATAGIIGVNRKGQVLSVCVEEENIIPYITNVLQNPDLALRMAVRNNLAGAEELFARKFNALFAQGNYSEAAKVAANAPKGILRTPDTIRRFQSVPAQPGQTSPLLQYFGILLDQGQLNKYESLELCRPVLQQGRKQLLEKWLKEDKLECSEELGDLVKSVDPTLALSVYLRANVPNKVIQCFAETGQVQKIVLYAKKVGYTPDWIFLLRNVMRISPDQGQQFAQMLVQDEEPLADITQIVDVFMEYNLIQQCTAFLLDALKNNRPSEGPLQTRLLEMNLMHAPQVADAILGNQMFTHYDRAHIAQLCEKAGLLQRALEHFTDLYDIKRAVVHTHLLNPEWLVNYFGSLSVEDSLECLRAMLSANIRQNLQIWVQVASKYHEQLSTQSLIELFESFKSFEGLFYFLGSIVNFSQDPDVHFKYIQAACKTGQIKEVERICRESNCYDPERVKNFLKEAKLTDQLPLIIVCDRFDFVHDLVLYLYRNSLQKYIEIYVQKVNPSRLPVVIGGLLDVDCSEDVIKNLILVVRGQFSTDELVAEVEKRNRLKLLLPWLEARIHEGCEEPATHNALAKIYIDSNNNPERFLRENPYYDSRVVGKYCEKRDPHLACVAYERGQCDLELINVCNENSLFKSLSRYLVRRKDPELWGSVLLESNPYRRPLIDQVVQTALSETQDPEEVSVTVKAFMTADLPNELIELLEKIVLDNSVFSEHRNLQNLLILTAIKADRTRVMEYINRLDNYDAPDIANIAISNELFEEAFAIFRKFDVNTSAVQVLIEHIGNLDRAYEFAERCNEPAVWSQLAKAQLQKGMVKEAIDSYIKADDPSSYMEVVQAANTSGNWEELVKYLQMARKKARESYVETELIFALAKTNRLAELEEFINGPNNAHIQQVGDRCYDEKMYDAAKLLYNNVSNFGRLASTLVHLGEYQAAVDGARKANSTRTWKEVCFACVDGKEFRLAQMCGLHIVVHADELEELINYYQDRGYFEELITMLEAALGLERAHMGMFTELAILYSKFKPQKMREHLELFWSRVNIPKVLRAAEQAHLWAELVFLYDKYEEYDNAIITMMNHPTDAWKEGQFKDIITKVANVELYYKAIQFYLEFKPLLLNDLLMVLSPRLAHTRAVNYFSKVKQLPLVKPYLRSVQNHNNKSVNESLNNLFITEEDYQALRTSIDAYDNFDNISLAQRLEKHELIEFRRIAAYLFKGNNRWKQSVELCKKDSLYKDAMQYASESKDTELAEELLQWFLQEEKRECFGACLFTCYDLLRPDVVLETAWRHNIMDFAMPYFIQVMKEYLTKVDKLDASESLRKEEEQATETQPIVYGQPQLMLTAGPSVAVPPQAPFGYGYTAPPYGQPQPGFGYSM

fractional recovery (FR; recovery at 1150 mM salt / recovery at 150 mM salt) [1] | fractional recovery (FR; recovery at 1150 mM salt / recovery at 150 mM salt) (stonin2) | Molecule | further results
1 | – | long-variant intersectin (natural protein) | –
0.84 | – | light chain clathrin (from UniProt P08081 1-248) (natural protein) | –
– | – | B1 | fractional recovery (FR; recovery at 1150 mM salt / recovery at 150 mM salt) (AP180): 1 ± 0.17; fractional recovery (FR; recovery at 1150 mM salt / recovery at 150 mM salt) (heavy chain clathrin): 0.78
– | 0.83 | B2 | –
– | 0.98 | B3 | –
